According to IntAct's records for PubMed 12869544:

B1: Translocase of chloroplast 33, chloroplastic (Arabidopsis thaliana (Mouse-ear cress)), O23680 (parent)
chain: MGSLVREWVGFQQFPAATQEKLIEFFGKLKQKDMNSMTVLVLGKGGVGKSSTVNSLIGEQVVRVSPFQAEGLRPVMVSRTMGGFTINIIDTPGLVEAGYVNHQALELIKGFLVNRTIDVLLYVDRLDVYRVDELDKQVVIAITQTFGKEIWCKTLLVLTHAQFSPPDELSYETFSSKRSDSLLKTIRAGSKMRKQEFEDSAIAVVYAENSGRCSKNDKDEKALPNGEAWIPNLVKAITDVATNQRKAIHVDKKMVDGSYSDDKGKKLIPLIIGAQYLIVKMIQGAIRNDIKTSGKPL

Variants of: B1
Settings: with tc159_arath TOC159, O81283
tc159_arath TOC159, O81283, sequence (O81283 whole entry): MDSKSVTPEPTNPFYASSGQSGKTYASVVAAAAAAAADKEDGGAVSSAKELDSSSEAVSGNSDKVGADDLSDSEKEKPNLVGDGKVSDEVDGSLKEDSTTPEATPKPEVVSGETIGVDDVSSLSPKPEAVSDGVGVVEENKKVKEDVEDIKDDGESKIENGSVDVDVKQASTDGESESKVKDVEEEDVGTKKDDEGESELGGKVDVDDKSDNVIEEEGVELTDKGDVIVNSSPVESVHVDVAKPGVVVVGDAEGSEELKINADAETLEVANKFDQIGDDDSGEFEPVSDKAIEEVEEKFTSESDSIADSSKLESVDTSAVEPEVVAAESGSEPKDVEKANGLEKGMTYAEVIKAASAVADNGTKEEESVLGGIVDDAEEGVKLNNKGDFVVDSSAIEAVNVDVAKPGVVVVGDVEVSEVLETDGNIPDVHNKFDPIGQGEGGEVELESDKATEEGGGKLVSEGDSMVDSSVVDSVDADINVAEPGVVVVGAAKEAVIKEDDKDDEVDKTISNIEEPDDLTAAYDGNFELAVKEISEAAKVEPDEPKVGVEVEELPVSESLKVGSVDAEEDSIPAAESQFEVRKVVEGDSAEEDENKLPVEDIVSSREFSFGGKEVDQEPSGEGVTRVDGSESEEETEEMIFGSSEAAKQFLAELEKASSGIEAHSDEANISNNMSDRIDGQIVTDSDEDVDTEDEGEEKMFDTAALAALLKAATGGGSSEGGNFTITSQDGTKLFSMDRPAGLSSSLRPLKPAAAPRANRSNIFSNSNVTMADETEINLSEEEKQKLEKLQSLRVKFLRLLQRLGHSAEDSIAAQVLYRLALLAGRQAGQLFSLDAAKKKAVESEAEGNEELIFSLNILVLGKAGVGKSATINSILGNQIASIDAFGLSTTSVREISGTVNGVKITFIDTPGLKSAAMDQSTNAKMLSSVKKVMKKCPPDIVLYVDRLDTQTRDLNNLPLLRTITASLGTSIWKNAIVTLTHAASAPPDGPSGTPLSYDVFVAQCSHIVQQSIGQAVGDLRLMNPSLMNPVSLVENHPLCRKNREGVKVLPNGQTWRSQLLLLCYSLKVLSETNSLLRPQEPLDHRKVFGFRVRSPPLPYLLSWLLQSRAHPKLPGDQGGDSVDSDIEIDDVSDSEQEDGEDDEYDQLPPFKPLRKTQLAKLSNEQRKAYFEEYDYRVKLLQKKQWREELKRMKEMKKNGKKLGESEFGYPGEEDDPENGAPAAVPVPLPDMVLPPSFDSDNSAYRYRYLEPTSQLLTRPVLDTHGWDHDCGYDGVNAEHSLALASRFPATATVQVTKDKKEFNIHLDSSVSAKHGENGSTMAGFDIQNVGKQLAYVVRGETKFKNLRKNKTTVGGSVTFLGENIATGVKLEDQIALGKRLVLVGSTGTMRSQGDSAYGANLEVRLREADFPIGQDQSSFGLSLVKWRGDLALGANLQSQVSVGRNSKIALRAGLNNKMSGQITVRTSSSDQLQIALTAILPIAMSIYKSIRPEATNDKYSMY

effect of a mutation on the interaction | Variant
decreasing interaction | MGSLVREWVGFQQFPAATQEKLIEFFGKLKQKDMNSMTVLVLGKGGVGKSSTVNSLIGEQVVRVSPFQAEGLRPVMVSRTMGGFTINIIDTPGLVEAGYVNHQALELIKGFLVNRTIDVLLYVDRLDVYAVDELDKQVVIAITQTFGKEIWCKTLLVLTHAQFSPPDELSYETFSSKRSDSLLKTIRAGSKMRKQEFEDSAIAVVYAENSGRCSKNDKDEKALPNGEAWIPNLVKAITDVATNQRKAIHVDKKMVDGSYSDDKGKKLIPLIIGAQYLIVKMIQGAIRNDIKTSGKPL [R130A]
